The record followed here is patent publication US20230151091A1 (NEW YORK UNIVERSITY, published 2023).

The target in test [1] is T1, mouse MuSK, endogenous (C2C12 myotubes; neuromuscular synapses of mice) (mouse, UniProt Q61006 22-868).
T1 sequence (looked up): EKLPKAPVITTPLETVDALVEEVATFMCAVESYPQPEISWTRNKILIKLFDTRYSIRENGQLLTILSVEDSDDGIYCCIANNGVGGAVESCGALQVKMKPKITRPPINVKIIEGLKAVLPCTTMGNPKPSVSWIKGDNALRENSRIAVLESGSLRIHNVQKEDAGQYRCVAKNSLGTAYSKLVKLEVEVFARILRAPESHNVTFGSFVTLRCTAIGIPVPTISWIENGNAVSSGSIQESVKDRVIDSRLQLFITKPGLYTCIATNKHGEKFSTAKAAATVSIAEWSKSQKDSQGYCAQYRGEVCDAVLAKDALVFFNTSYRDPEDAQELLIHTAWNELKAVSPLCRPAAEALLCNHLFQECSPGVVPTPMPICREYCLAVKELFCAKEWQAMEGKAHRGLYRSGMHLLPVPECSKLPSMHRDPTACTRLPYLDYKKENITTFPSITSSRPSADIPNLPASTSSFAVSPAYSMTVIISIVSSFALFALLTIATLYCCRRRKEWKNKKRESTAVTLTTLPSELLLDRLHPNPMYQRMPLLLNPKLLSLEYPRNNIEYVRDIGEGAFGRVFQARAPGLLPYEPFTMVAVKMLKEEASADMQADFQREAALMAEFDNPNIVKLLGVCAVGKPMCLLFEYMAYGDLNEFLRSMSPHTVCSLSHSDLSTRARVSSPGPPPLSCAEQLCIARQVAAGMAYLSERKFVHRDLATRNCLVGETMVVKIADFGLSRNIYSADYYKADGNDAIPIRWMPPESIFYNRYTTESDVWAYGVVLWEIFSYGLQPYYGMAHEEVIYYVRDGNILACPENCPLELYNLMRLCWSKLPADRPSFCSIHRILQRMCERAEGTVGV
As to the kind of experiment: cell-based or functional assay.

Test [2] deals with T2, mouse MuSK (mouse, UniProt Q61006 22-494, limits assumed).
T2 construct: Coated on ELISA plates or on the Biacore chip; also called full length mouse MuSK; mouse MuSK (in house produced in HEK293 cells)
T2 sequence (looked up): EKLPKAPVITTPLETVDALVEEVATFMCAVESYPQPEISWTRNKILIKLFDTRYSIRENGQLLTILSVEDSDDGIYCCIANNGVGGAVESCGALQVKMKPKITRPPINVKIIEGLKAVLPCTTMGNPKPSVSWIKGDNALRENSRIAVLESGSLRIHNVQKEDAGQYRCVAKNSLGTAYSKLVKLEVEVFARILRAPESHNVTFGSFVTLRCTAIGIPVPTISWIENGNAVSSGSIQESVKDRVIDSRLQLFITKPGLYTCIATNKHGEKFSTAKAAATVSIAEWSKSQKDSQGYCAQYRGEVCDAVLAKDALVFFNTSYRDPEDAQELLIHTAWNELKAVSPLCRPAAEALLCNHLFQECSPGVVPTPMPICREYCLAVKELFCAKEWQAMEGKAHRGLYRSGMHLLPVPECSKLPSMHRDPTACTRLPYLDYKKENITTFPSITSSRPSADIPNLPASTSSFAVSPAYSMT
The test is described as follows: Biacore T200, MuSK on chip (200RU), 22.2 nM Fab, dissociation pH 7.4. The method, boiled down: (§1)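 Surface plasmon resonance was run with both human and mouse MuSK immobilized on the sensor chip. Fab association was always performed at pH 7.4 before the dissociation phase. Kinetic parameters were calculated from the binding curves.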
On the technique in general: Surface plasmon resonance follows binding to a sensor surface in real time, without labels.

In test [3] the target is T3, human MuSK (human, UniProt O15146 24-495).
T3 construct: Recombinant protein coated on ELISA plates (R&D Systems cat. 10189-MK) or on the Biacore chip; also called human muscle-specific tyrosine protein kinase; full length human MuSK
T3 sequence: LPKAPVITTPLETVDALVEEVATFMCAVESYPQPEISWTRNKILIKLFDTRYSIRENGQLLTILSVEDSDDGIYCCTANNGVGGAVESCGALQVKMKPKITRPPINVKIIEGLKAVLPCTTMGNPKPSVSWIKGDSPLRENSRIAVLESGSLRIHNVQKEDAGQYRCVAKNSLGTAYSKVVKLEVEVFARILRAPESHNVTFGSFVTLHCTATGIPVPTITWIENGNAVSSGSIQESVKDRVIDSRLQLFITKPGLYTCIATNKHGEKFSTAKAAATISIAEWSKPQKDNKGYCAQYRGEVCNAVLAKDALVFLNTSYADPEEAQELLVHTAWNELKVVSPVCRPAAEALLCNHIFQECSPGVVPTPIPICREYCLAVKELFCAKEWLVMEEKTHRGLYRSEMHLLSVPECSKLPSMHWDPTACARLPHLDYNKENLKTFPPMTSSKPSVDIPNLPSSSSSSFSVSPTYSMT
The description is as above. A digest of the protocol: as §1

In test [4] the target is T2, mouse MuSK. The test is described as follows: Biacore T200, off rate at pH 5.5 against pH 7.4. A digest of the protocol: as §1
Test [5] deals with T3, human MuSK. As to the kind of experiment: Biacore T200, off rate at pH 5.5 against pH 7.4. A digest of the protocol:
as §1

In test [6] the target is T2, mouse MuSK. The test is described as follows: Biacore T200, MuSK on chip (200RU), 22.2 nM Fab, dissociation pH 5.5. The method, boiled down: as §1
For test [7], the target named is T3, human MuSK. The test is described as above. The method, boiled down:
as §1

B1: 3B2 (antibody, V domains shown)
VH: ELQLVESGGGLVQPGGSLRLSCAASGFTFDDYGMSWVRQAPGKGLEWVSAIPWNGGSTYYKESVKGRFTISRDNAKKTLYLQMNSLKSEDTAVYYCAKRSGRIAFGALDAWGQGTLVTVSS
VL: QAVVTQEPSLSVSPGGTVTLTCGLSSGSVTSSNYPDWYQQTPGQAPRGLIYSTDSRHSGVPSRFSGSISGNKAALTITGAQSEDEADYYCGLYMYSGSKNYVFGGGTKLTVL
notes: human IgG1 with the LALA mutations (L234A, L235A); produced in HEK293 cells; also called 3B2 mAb; parental 3B2 Ab
For B1, in test [1], the “% Phosphorylation Induced in C2C12 Mouse Assay, Assay 1” value was 74 % versus agrin; the “% Phosphorylation Induced in C2C12 Mouse Assay, Assay 2” value came out at 94 % versus agrin; the “% Phosphorylation Induced in C2C12 Mouse Assay, Assay 3” value came out at 64 % versus agrin; the “% Phosphorylation Induced in C2C12 Mouse Assay, Average” value came to 77 % versus agrin.

B2: X2 Fab (Fab, V domains shown)
VH: EVQLVESGGGLVQPGGSLRLSCAASGFTVSSSSIHWVRQAPGKGLEWVASISSSYGSTSYADSVKGRFTISADTSKNTAYLQMNSLRAEDTAVYYCARSEGDRYVSGYMGMDYWGQGTLVTVSS
VL: DIQMTQSPSSLSASVGDRVTITCRASQSVSSAVAWYQQKPGKAPKLLIYSASSLYSGVPSRFSGSRSGTDFTLTISSLQPEDFATYYCQQSGVWLITFGQGTKVEIK
notes: Fab format
B2: the dissociation rate constant (koff) stood at 0.00053 s⁻¹ in test [2], 0.00057 s⁻¹ in test [3], 0.00051 s⁻¹ in test [6] and 0.00034 s⁻¹ in test [7]. Besides, the “Ratio pH 5.5/7.4 of off rate” value in test [4] was 1; in test [5], 0.6.

B3: X3 Fab (Fab, V domains shown)
VH: EVQLVESGGGLVQPGGSLRLSCAASGFTISSSSIHWVRQAPGKGLEWVASISSSSGYTYYADSVKGRFTISADTSKNTAYLQMNSLRAEDTAVYYCARSWYEMWMSGYFGFDYWGQGTLVTVSS
VL: DIQMTQSPSSLSASVGDRVTITCRASQSVSSAVAWYQQKPGKAPKLLIYSASSLYSGVPSRFSGSRSGTDFTLTISSLQPEDFATYYCQQSSSSLITFGQGTKVEIK
notes: Fab format
B3: the koff in test [2] was 0.00558 s⁻¹; in test [3], 0.00063 s⁻¹; in test [6] it was 0.0246 s⁻¹; in test [7], 0.00225 s⁻¹. For the same molecule, the “Ratio pH 5.5/7.4 of off rate” value in test [4] worked out at 4.4; in test [5] it was 3.5.

What is called koff is the first-order rate constant of dissociation.
